Assay results reported in patent US20080113421A1, “Stabilizing proteins against denaturation and inactivation by charged detergents using chemical modifications, including modifications that increase net charge” (President and Fellows of Harvard College, priority 2006, published 2008).

Assays:
Surface area calculation = test: Surface area calculation
Method: A surface area calculation was also performed to determine the change in surface area between the conversion of BCA to BCA-Ac18 and BCA to BCA-Hex18. It was calculated that the reaction with acetic anhydride changed the surface area of BCA by 400 Å^2 and the reaction with hexanoic anhydride changed the surface area of BCA by 1180 Å^2. Since this change is a factor of 2.9, it can be concluded that this estimate that each modification with hexanoic anhydride adds three times the amount of surface area than modification with acetic anhydride is justified.

BCA = target: T1, BCA (Bos taurus, UniProt P00921); test: Effect of DNSA present in the denaturing solution on rate of SDS denaturation; set-up: species or system bovine; conditions: DNSA present with the protein in the denaturing SDS solution
T1 construct: purchased Sigma-Aldrich (St. Louis, Mo.)
Method: The kinetics of unfolding were determined as follows. The rates of denaturation of BCA and BCA-Ac18 were measured by incubating the protein (200 nM) in solutions of different concentrations of SDS. Immediately prior to the measurement, an aliquot of solution containing protein and SDS was mixed with a solution containing DNSA and the same concentration of SDS; this protocol minimized the possibility that DNSA might stabilize the native conformation of the protein, and influence the rate of its denaturation. When BCA was denatured in concentrations of SDS of 4 mM and higher, DNSA was added to the original, denaturing solution because the rate of denaturation was too fast to follow with manual mixing of aliquots of protein and DNSA. It was observed that DNSA, when present with the protein in the denaturing solution, reduced the rates of denaturation by factors of about 2-10.

T1 sequence (P00921 whole entry): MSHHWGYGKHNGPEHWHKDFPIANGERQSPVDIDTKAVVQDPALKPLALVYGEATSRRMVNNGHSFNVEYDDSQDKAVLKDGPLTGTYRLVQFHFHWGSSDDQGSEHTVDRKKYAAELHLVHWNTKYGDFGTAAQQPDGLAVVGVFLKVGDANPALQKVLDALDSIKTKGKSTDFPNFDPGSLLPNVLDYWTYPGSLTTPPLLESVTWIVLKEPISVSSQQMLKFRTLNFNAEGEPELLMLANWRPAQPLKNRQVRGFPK

Compound	ratio of surface area change, hexanoic vs acetic anhydride (Surface area calculation)	factor by which rates of denaturation are reduced (BCA)
BCA-Hex18: BCA with all 18 lysines modified with hexanoic anhydride	2.9	
CN(C)c1cccc2c(S(N)(=O)=O)cccc12 [DNSA, Dansyl amide]		2-10
